A short description of this assay: Single-channel electrical recordings of protein pores in planar lipid bilayers. It counts as biochemical. The conditions noted are these: +40 mV.
The mark [1] stands for this setting: 1 M KCl, 10 mM potassium phosphate, pH 7.4.

B1: WT-FhuA: wild-type E. coli ferric hydroxamate uptake component A, 714-residue β-barrel outer membrane protein (protein, UniProt P06971 34-747, looked up)
Ferrichrome outer membrane …: AVEPKEDTITVTAAPAPQESAWGPAATIAARQSATGTKTDTPIQKVPQSISVVTAEEMALHQPKSVKEALSYTPGVSVGTRGASNTYDHLIIRGFAAEGQSQNNYLNGLKLQGNFYNDAVIDPYMLERAEIMRGPVSVLYGKSSPGGLLNMVSKRPTTEPLKEVQFKAGTDSLFQTGFDFSDSLDDDGVYSYRLTGLARSANAQQKGSEEQRYAIAPAFTWRPDDKTNFTFLSYFQNEPETGYYGWLPKEGTVEPLPNGKRLPTDFNEGAKNNTYSRNEKMVGYSFDHEFNDTFTVRQNLRFAENKTSQNSVYGYGVCSDPANAYSKQCAALAPADKGHYLARKYVVDDEKLQNFSVDTQLQSKFATGDIDHTLLTGVDFMRMRNDINAWFGYDDSVPLLNLYNPVNTDFDFNAKDPANSGPYRILNKQKQTGVYVQDQAQWDKVLVTLGGRYDWADQESLNRVAGTTDKRDDKQFTWRGGVNYLFDNGVTPYFSYSESFEPSSQVGKDGNIFAPSKGKQYEVGVKYVPEDRPIVVTGAVYNLTKTNNLMADPEGSFFSVEGGEIRARGVEIEAKAALSASVNVVGSYTYTDAEYTTDTTYKGNTPAQVPKHMASLWADYTFFDGPLSGLTLGTGGRYTGSSYGDPANSFKVGSYTVVDALVRYDLARVGMAGSNVALHVNNLFDREYVASCFNTYGCFWGAERQVVATATFRF
Regarding B1, the “all-points histogram current amplitude peak” value is on record as about 12.5 pA. Under setting [1], this molecule came in with a Conductance of 0.3 ± 0.2 nS and a single-channel conductance of 0.3±0.2 nS.

The record behind these values is patent publication US8916684B2, “Bioengineered protein pores” (Syracuse University, priority 2010, dated 2014).
